These results are taken from article PMC5072618.

Test [1] addresses IFI16 (gamma-interferon-inducible protein 16) (human (endogenous in HMVEC-d, HFF, BJAB, BCBL-1)) (UniProt Q16666). The test is described as follows: co-IP; whole cell lysates of KSHV infected HMVEC-d cells (4 h; 30 min, 4 and 24 h for the p300 blot); IP with anti-Ran, anti-IFI16, anti-STING or anti-ASC antibodies; cells untreated or electroporated with siC, sicGAS or siASC.
The target is the same in test [2]. The test is described as follows: co-IP; whole cell lysates of KSHV infected HMVEC-d cells electroporated with siBRCA1 (48 h); IP with anti-IFI16 antibody.

UniProt Q16666, sequence (Q16666 whole entry): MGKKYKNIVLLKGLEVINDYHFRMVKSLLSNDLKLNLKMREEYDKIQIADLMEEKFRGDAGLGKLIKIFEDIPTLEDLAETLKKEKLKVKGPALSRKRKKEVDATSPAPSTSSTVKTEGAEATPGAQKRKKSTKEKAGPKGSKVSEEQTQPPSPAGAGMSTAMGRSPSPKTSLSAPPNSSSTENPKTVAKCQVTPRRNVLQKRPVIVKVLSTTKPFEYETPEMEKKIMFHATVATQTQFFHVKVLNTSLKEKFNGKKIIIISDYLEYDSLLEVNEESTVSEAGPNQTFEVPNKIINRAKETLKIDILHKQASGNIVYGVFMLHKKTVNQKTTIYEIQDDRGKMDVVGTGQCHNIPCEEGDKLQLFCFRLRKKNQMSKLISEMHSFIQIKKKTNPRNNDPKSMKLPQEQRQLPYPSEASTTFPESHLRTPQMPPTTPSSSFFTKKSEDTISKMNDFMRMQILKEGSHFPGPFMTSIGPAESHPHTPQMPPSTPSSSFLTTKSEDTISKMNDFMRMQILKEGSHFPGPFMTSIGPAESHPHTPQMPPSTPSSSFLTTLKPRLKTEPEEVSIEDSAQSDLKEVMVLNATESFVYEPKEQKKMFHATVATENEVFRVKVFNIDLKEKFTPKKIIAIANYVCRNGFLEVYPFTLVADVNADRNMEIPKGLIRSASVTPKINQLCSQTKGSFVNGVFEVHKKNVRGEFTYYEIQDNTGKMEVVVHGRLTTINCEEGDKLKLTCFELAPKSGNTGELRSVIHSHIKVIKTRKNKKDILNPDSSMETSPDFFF

Consider “histone H2B (from UniProt P62807 1-126) (natural protein)”, for which the reduction of the IFI16-H2B co-precipitate on cGAS knockdown in test [1] was 25%. Besides, the reduction of the IFI16-H2B co-precipitate on BRCA1 knockdown in test [2] amounted to 40%.
